In paper PMC5120205 (Nature Communications, 2016) one finds binding result, Kd and other data, which are given here for ten molecules.

Positions count from the first letter of the chain named. Names may count otherwise.

Details in all cases: both partners purified
For assay [1], the target named is T1, recombinant IsdB NEAT2 domain (Staphylococcus aureus USA300, UniProt Q2FHV2).
T1 construct: not shown: FLAG, C-terminal, kept
Put plainly: ELISA.

In assay [2] the target is T2, recombinant full-length IsdB (Staphylococcus aureus USA300, UniProt Q2FHV2).
T2 construct: not shown: FLAG, C-terminal, kept
Put plainly: ELISA.

Assay [3] has as its target IsdB NEAT2 domain (Staphylococcus aureus USA300, UniProt Q2FHV2). Put plainly: SPR. (In general: SPR reads the build-up and loss of mass on a sensor chip optically.)
In assay [4] the target is T3, recombinant full-length IsdB (Staphylococcus aureus USA300, UniProt Q2FHV2).
T3 construct: not shown: FLAG, C-terminal, kept
Put plainly: SPR.

In assay [5] the target is T4, recombinant IsdB NEAT1 domain (Staphylococcus aureus USA300, UniProt Q2FHV2).
T4 construct: not shown: FLAG, C-terminal, kept
Put plainly: ELISA.

Assay [6] has as its target T2, recombinant full-length IsdB. Put plainly: SPR. This is another data set of the same source.
The target in assay [7] is T3, recombinant full-length IsdB. Put plainly: BLI; Octet; antibody captured on anti-species sensors (15 ug/ml), 32 nM rIsdB bound, then 1 uM Hb or buffer.
Assay [8] addresses T5, recombinant full-length IsdB (Staphylococcus aureus USA300, UniProt Q2FHV2).
T5 construct: not shown: FLAG, C-terminal, kept
Put plainly: ELISA. The source holds these as a separate data set. For orientation: In an ELISA, binding on a coated surface is turned into a signal by an enzyme label.

B1: D4-30-N2 (antibody, V domains shown)
VH: QVQLVQSGSEVKKPGSSVTLSCKASGDTFNTHTYSWVRQAPGQRLEWIGGIMPIFAASKSAPHLQDRLTITANKATRTAYMELTSLTSDDSGVYYCARDGRGALQYWGQGTLVTVSS
VL: DIVMTQSPLSLPVTLGQPASISCSSAQSLVHSDGDSYLTWFHQRPGQSPRRLIYKVSIRDAGVPDRFSGSGSGTDFTLKISRVEAEDVGVYYCMQATHWPYTFGQGTKLEIK
For B1, in assay [1], the binding result is “binds”.

B2: D4-30-N2 antibody (human IgG) (antibody, V domains shown)
VH: B1 VH
VL: B1 VL
On to B2, for which the binding result in assay [2] and in assay [3] was “binds” throughout.

B3: D4-10-N1 (antibody, V domains shown)
VH: QVQLQESGPGLVKPSETLSLICTVSGGSISSSSYYWGWIRQTPERNLEWIGIIYFSGTTYYNPSLQSRVSMSLDRSTNRFSLRLSSVTAADTAIYYCAKPKSRDRGGPGDDYFGMDVWGQGIMVTVSS
VL: DIQLTQSPSFLSASVADRVTITCRASQAVRSSLAWYQQKPGKAPQLLIYSASTLENGVSSRFSGSGPGTEFTLTISSLQPEDVGTYYCQQLNTYPFTFGPGTKVEIK
One may read the Kd as the equilibrium constant for the complex coming apart. Regarding B3, the Kd in assay [4] was less than 1 pM. The binding result in assay [5] is recorded as “binds”.

B4: D4-10-N1 antibody (human IgG) (antibody, V domains shown)
VH: B3 VH
VL: B3 VL
In the case of B4, in assay [6], the binding result was “binds”.

B5: germlined D4-10 (NEAT1) (antibody, V domains shown)
VH: QLQLQESGPGLVKPSETLSLTCTVSGGSISSSSYYWGWIRQPPGKGLEWIGSIYYSGSTYYNPSLKSRVTISVDTSKNQFSLKLSSVTAADTAVYYCAKPKSRDRGGPGDDYFGMDVWGQGIMVTVSS
VL: B3 VL
Regarding B5, the binding result in assay [7] was “binds”.

B6: D4-10-N1 germline-reverted (IGHV4-39) (antibody, V domains shown)
VH: B5 VH
VL: B3 VL
For B6, the binding result in assay [6] is recorded as “binds”.

B7: D2-06-N2 (IGHV1-69*01 germline-reverted) (antibody, V domains shown)
VH: QVQLVQSGAEVKKPGSSVKVSCKASGGTFSSYAISWVRQAPGQGLEWMGGIIPIFGTANYAQKFQGRVTITADESTSTAYMELSSLRSEDTAVYYCARDRPPGAQFDTWGQGTLVTVSS
VL: not shown
Molecule B7 displayed an other in assay [3] of more than 600 fold.

B8: D2-06-N2 (IGHV1-69*01 germline-reverted) variant F54L (antibody, V domains shown)
VH: B7 VH with F55L
VL: not shown
Take B8: the binding result in assay [2] was “binds”.

B9: D2-06-N2 (IGHV1-69*01 germline-reverted) variant G50R (antibody, V domains shown)
VH: B7 VH with G50R
VL: not shown
In the case of B9, in assay [8], the binding result is on record as “no binding”.

B10: D2-06-N2 (IGHV1-69*01 germline-reverted) variant T56I (antibody, V domains shown)
VH: B7 VH with T57I
VL: not shown
As to B10, in assay [2], the binding result is on record as “binds”.
